Patent US20020115066A1, “Viral therapeutics” (priority 1998, published 2002)
Peptide text beside a SMILES is read from it. * marks the point of attachment. Cbz = O=C(OCc1ccccc1)*

Columns and labels:
proteasome = assay: Western blot of core protein after treatment with proteasome inhibitor MG132; format: cell-based, hamster; conditions: cells electroporated with pSFV.1-124, 145-152; MG132 2.5 μM from 4 hours after electroporation, harvested at 16 hours
Procedure: A. Western Blot analysis of extracts prepared from cells which were harvested 16 hours after electroporation following treatment with proteasomal inhibitor MG132. Aliquots of extracts containing the same number of cell equivalents were analyzed with antibody JM122. The samples were from cells electroporated with RNA from the following constructs: lanes 1 and 2, PSFV.1-195; lanes 3 and 4, pSFV.1-124, 145-152; lanes 5 and 6, pSFV.Δ125-144; lanes 7 and 8, pSFV.1-153; lanes 9 and 10, no RNA. Samples in lanes with odd numbers were prepared from cells not treated with MG132. Samples in lanes with even numbers were prepared from cells which had been incubated in the presence of MG132 (final concentration 2.5 μM) from 4 hours after electroporation.
For Western blot analysis, proteins were separated on polyacrylamide gels and transferred to nitrocellulose membrane using standard techniques. The nitrocellulose membrane was blocked in 3% gelatin, 20 mM Tris (pH 7.5), 500 mM NaCl for at least 6 hours at 37° C. prior to incubation with the primary antibody. Incubations with the primary antibody (diluted to 1/500for adipophilin antibody and 1/1000for JM122) were performed in 1% gelatin, 20 mM Tris (pH 7.5), 500 mM NaCl, 0.05% Tween 20 at either room temperature or 37° C. for approximately 3-4 hours. […] Bound antibody was detected by enhanced chemiluminescence.

lipid droplets = assay: Intracellular localization of tagged GBV-B and HCV core proteins (Example 10); format: cell-based, hamster; conditions: BHK cells, epitope tag detected with antibody 9220 or JM122, oil red O
From the text: To express portions of the GBV-B polyprotein, relevant regions were amplified by PCR from a construct pGBB (30). pGBB contains the consensus sequence for an infectious molecular clone of GBV-B (30). Primers for PCR amplification were derived from the viral sequences in pGBB and were used in the following pairs to produce DNA fragments that encoded N-terminal regions of the GBV-B polyprotein: residues 1-141, GBV-B primers 1 and 2; residues 1-194, GBV-B primers 1 and 3; residues 1-398, GBV-B primers 1 and 4. Amplified fragments were introduced initially into plasmid pGEM1 and thereafter into pSFV1 by standard cloning techniques. To permit detection of GBV-B core, an epitope tag (32) was introduced into the coding region immediately following amino acid residue 85 (FIG. 7). […] An oligonucleotide encoding the epitope tag (GBV-B5 in Table 1) was inserted between this XbaI site and a TfiI site (position 708 in the native GBV-B nucleotide sequence). The final SFV constructs that contained tagged versions of GBV-B core were termed pSFV/GB1-141, pSFV/GB1-194 and pSFV/GB1-398. […]
Cells on 13 mm coverslips were fixed for 30 min in 4% paraformaldehyde, 0.1% Triton X-100 (prepared in phosphate-buffered saline) at 4° C. […] Samples were analyzed using a Zeiss LSM confocal microscope.

Molecule: CC(C)C[C@@H](C=O)NC(=O)[C@H](CC(C)C)NC(=O)[C@H](CC(C)C)NC(=O)OCc1ccccc1 [MG132] (Cbz-Leu-Leu-Leu-aldehyde)
- increase in the amount of protein detected by Western blot analysis (proteasome): 4 fold

B1: pSFV/GB1-398: SFV construct with epitope-tagged GBV-B core, residues 1-398 of the GBV-B polyprotein (protein)
chain: MPVISTQTSPVPAPRTRKNKQTQASYPVSIKTSVERGQRAKRKVQRDARPRNYKIAGIHDGLQTLAQAALPAHGWGRQDPRHKSRNLGILLDYPLGWIGDVTTHTPLVGPLVAGAVVRPVCQIVRLLEDGVNWATGWFGVHLFVVCLLSLACPCSGARVTDPDTNTTILTNCCQRNQVIYCSPSTCLHEPGCVICADECWVPANPYISHPSNWTGTDSFLADHIDFVMGALVTCDALDIGELCGACVLVGDWLVRHWLIHIDLNETGTCYLEVPTGIDPGFLGFIGWMAGKVEAVIFLTKLASQVPYAIATMFSSVHYLAVGALIYYASRGKWYQLLLALMLYIEATSGNPIRVPTGCSIAEFCSPLMIPCPCHSYLSENVSEVICYSPKWTRPVTLE
modifications: left off: small tags and cut ends
- intracellular localization relative to lipid droplets (lipid droplets): staining around lipid droplets

B2: pSFV/GB1-141: SFV construct with epitope-tagged GBV-B core, residues 1-141 of the GBV-B polyprotein (protein)
chain: MPVISTQTSPVPAPRTRKNKQTQASYPVSIKTSVERGQRAKRKVQRDARPRNYKIAGIHDGLQTLAQAALPAHGWGRQDPRHKSRNLGILLDYPLGWIGDVTTHTPLVGPLVAGAVVRPVCQIVRLLEDGVNWATGWFGVH
modifications: left off: small tags and cut ends
- intracellular localization relative to lipid droplets (lipid droplets): localization of the protein around lipid droplets
